Source: patent US20050256302A1, “Novel peptides having camp producing activity” (Japan Science and Technology Agency, priority 2002, published 2005)
One block for each molecule: values may come before it. Bridges are numbered along the chain shown (N, C = ends). Where no end group is shown, it is not given here.

How the values were obtained:
[1] = system: LLC-PK1 cells; test: cAMP production in LLC-PK1 cells by bovine or canine CRSP; assay type: cell-based, pig; conditions: 10 minutes, IBMX
Procedure: Further, with regard to the peptides of the present invention identified in cow and dog (bovine CRSP and canine CRSP), cAMP productivity of CRSP using LLC-PK1 cells by the same manner as above was investigated.
LLC-PK1 cells were incubated in a culture medium (a Dulbecco-modified Eagle medium (DMEM) containing 10% of fetal bovine serum). After two days, the cells were washed twice with a DMEM containing 0.05% of bovine serum albumin, the medium in the incubation dish was substituted with a DMEM containing 0.5 mM of 3-isobutyl-1-methylxanthine and 0.05% of bovine serum albumin (DMEM/BSA/IBMX) and incubation was conducted at 37° C. for 30 minutes. After the incubation, the medium was substituted with a DMEM/BSA/IBMX in which CRSP was dissolved so as to make it 0 M and 10^−12 to 10^−6 M and incubation was conducted at 37° C. for 10 minutes. After the incubation, the medium in the incubating dish was removed, ethanol was added thereto and the incubating dish was once frozen in a freezer for the cell lysis. […] After that, 100 μl of 1% γ-globulin and 500 μl of 25% polyethylene glycol were added, the mixture was well mixed and centrifuged and radioactivity of the precipitate was measured using a gamma-counter and compared with radioactivity of the standard curve prepared by cAMP of known concentrations whereupon the amount of cAMP was quantified.

[2] = target: T1, Pig calcitonin receptor (CTR) (Sus scrofa, UniProt P25117); test: cAMP production in COS-7 cells expressing pig calcitonin receptor; assay type: cell-based; conditions: CTR expressed in COS-7
T1 construct: expressed in transfected cells; host or cells: COS-7 (given as rhesus monkey renal cells), vector pcDNA 3.1
T1 sequence (P25117 30-498): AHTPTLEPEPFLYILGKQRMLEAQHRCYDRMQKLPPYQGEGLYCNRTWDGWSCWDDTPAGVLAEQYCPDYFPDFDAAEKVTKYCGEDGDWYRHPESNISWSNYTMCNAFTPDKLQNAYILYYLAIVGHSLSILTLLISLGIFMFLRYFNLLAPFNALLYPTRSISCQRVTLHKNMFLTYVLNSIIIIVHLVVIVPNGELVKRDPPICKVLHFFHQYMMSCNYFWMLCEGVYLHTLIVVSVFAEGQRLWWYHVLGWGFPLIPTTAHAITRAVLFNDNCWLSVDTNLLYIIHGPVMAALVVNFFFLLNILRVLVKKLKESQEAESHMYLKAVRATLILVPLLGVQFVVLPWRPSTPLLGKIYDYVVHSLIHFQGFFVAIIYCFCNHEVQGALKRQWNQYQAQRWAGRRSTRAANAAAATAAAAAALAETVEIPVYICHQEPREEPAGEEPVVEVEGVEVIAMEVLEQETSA
Procedure: Pig calcitonin receptor (CTR) was introduced into a mammalian expression vector pcDNA 3.1, expressed in rhesus monkey renal cells (COS-7) and production amount of cAMP by stimulation of CRSP was measured by radioimmunoassay. Similarly, CTR was expressed in opossum renal cells (OK cells) and production amount of cAMP by stimulation of CRSP was measured by radioimmunoassay while incorporation of sodium ion was measured by measuring the incorporation of sodium chloride having radioactivity (^22Na) by a gamma-counter.
Pig calcitonin receptor (CTR) was introduced into mammalian expression vector pcDNA 3.1 and then expressed in rhesus monkey renal cells (COS-7) whereupon production amount of cAMP by CRSP stimulation was measured by radioimmunoassay.
Pig calcitonin receptor (CTR) was introduced into a mammalian expression vector pcDNA 3.1 and expressed in rhesus monkey renal cells (COS-7) and production amount of cAMP by CRSP stimulation was measured by radioimmunoassay.
Pig calcitonin receptor (CTR) was introduced into a mammalian expression vector pcDNA 3.1, then expressed in rhesus monkey renal cells (COS-7) and production amount of cAMP by CRSP or CRSP-Gly stimulation was measured-by radioimmunoassay.

[3] = target: T2, pig calcitonin receptor (CTR) (pig, UniProt P25117); test: cell-based or functional assay
T2 sequence: T1 sequence (P25117 30-498)

Molecule: SCNSATCVAHWLGGLLSRAGSVANTNLLPTSMGFKVYN-OH (not fully specified (bridges); printed as SCNSATCVAHWLGGLLSRAGSVANTNLLPTSMGFKVYN-OH; cysteine pairing not given here; listed as Canis sp.) [canine CRSP]
- cAMP productivity compared with pig CRSP [1]: nearly the same result as in the case of pig CRSP

- cAMP productivity, CRSP compared with CRSP-Gly [2]: nearly the same cAMP productivity
Molecule: Ser-Cys-Asn-Thr-Ala-Thr-Cys-Met-Thr-His-Arg-Leu-Val-Gly-Leu-Leu-Ser-Arg-Ser-Gly-Ser-Met-Val-Arg-Ser-Asn-Leu-Leu-Pro-Thr-Lys-Met-Gly-Phe-Lys-Val-Phe-Gly-Gly-OH (SCNTATCMTHRLVGLLSRSGSMVRSNLLPTKMGFKVFGG-OH; not fully specified (bridges); printed as Ser-Cys-Asn-Thr-Ala-Thr-Cys-Met-Thr-His-Arg-Leu-Val-Gly-Leu-Leu-Ser-Arg-Ser-Gly-Ser-Met-Val-Arg-Ser-Asn-Leu-Leu-Pro-Thr-Lys-Met-Gly-Phe-Lys-Val-Phe-Gly-Gly-OH; cysteine pairing not given here; listed as Sus sp.) [CRSP-Gly]

Molecule: ACNTATCMTHRLAGWLSRSGSMVRSNLLPTKMGFKIFNGP-OH (not fully specified (bridges); printed as ACNTATCMTHRLAGWLSRSGSMVRSNLLPTKMGFKIFNGP-OH; cysteine pairing not given here; listed as Bos sp.) [bovine CRSP]
- cAMP productivity compared with pig CRSP [1]: nearly the same result as in the case of pig CRSP

- cAMP-producing activity relative to pig CGRP, LLC-PK1 cells [3]: ~40 fold
- cAMP-producing activity relative to pig calcitonin, COS-7 cells expressing pig CTR [3]: ~350 fold
- cAMP-producing activity relative to pig calcitonin, LLC-PK1 cells [3]: ~6 fold
B1: pig calcitonin receptor-stimulating peptide (CRSP) (peptide)
peptide: SCNTATCMTHRLVGLLSRSGSMVRSNLLPTKMGFKVFG-NH2
modifications: disulfide 2-7; N-terminus assumed
SMILES: CSCC[C@H](NC(=O)[C@H](CCCCN)NC(=O)[C@@H](NC(=O)[C@@H]1CCCN1C(=O)[C@H](CC(C)C)NC(=O)[C@H](CC(C)C)NC(=O)[C@H](CC(N)=O)NC(=O)[C@H](CO)NC(=O)[C@H](CCCNC(=N)N)NC(=O)[C@@H](NC(=O)[C@H](CCSC)NC(=O)[C@H](CO)NC(=O)CNC(=O)[C@H](CO)NC(=O)[C@H](CCCNC(=N)N)NC(=O)[C@H](CO)NC(=O)[C@H](CC(C)C)NC(=O)[C@H](CC(C)C)NC(=O)CNC(=O)[C@@H](NC(=O)[C@H](CC(C)C)NC(=O)[C@H](CCCNC(=N)N)NC(=O)[C@H](Cc1c[nH]cn1)NC(=O)[C@@H](NC(=O)[C@H](CCSC)NC(=O)[C@@H]1CSSC[C@H](NC(=O)[C@@H](N)CO)C(=O)N[C@@H](CC(N)=O)C(=O)N[C@@H]([C@@H](C)O)C(=O)N[C@@H](C)C(=O)N[C@@H]([C@@H](C)O)C(=O)N1)[C@@H](C)O)C(C)C)C(C)C)[C@@H](C)O)C(=O)NCC(=O)N[C@@H](Cc1ccccc1)C(=O)N[C@@H](CCCCN)C(=O)N[C@H](C(=O)N[C@@H](Cc1ccccc1)C(=O)NCC(N)=O)C(C)C
